Literature values in paper PMC4589137.

Target: α-melanocyte stimulating hormone (α-MSH) (UniProt P01189)

- Kd: 0.4 nM
Substance: melanocortin 1 receptor (MC1R) (from UniProt Q01727)
